Measurements from patent US20230392126A1, “TISSUE ORGANOIDS” (priority 2016, published 2023).

Columns and labels:
[1] = cocaine hydrolysis; cited from earlier work
[2] = Stability and tolerance of transplanted skin organoids in immunocompetent hosts; assay type: in vivo, mouse; conditions: isogenic hosts CD1 and C57BL/6
Description: For grafting with skin organoids, CD1 (isogenic mouse keratinocyte transplantation) males or Nude (human keratinocyte transplantation) females with the ages of 6-8 weeks were anesthetized. A silicone chamber bottom with the interior diameter of 0.8 cm and the exterior diameter of 1.5 cm was implanted on its shaved dorsal mid-line skin, which was used to hold the skin graft. A chamber cap was installed to seal the chamber right after a piece of graft was implanted. About one week later, the chamber cap was removed to expose the graft to air. A single dose of 0.2 mg α-CD4 (GK1.5) and 0.2 mg α-CD8 (2.43.1) antibodies was administered intraperitoneally for skin grafting.
Optical imaging was performed in the integrated small animal imaging research resource (iSAIRR) at the University of Chicago. Bioluminescence images were acquired on an IVIS Spectrum (Caliper Life Sciences®, Alameda, CA) after animal was injected with luciferin (100 mg/kg). […]
Grafted cells in immunocompetent hosts readily expressed exogenous genes, such as Luciferase and Histone H2B-RFP (FIG. 1B-D), which were transduced to the cells with lentivirus. […] Importantly, the tissue organoid with expression of exogenous gene, such as Luciferase and H2B-RFP, was stable in vivo for more than 5 months in immunocompetent hosts, as determined by intravital bioluminescence imaging and tissue histology. […]

mouse epidermal cells = experiment: Expression and secretion of hBChE by immunoblots and ELISA (mouse epidermal cells); conditions: engineered mouse epidermal cells
epidermal stem cells = experiment: Anchorage-independent growth in soft agar; conditions: SCC cancer initiating cells as positive control
[3] = Extinction and cocaine-induced reinstatement of CPP; assay type: in vivo, mouse; conditions: grafted after CPP acquisition; priming 15 mg/kg cocaine
Description: Extinction and reinstatement of CPP: Following CPP acquisition, mice underwent extinction, in which the procedure was identical to that in the test day. In each extinction day, mice were allowed to explore the entire chambers for 20 min and time spent in each area was recorded. Extinction was performed until the CPP decreased to a level that was not different from that of the pretest in consecutive two days. On the following day of the last extinction, mice underwent reinstatement procedures, in which mice that were trained for cocaine CPP received an i.p. injection of 15 mg/kg cocaine, and mice that were trained for ethanol CPP received an i.p. injection of 1 g/kg ethanol. Immediate after injection, mice were allowed to explore the entire chambers for 20 min and time spent in each area was recorded.
Specific methods: One group of GhBChE and one group of GWT mice (n=9 in each group) were trained for cocaine CPP 7 days after engraftment (FIG. 18A). Mice underwent pretest on Day 1, four days of cocaine conditioning day 2 to Day 5, and CPP test on Day 6. One group of GhBChE and one group of GWT mice (n=8 in each group) were trained for ethanol CPP 7 days after engraftment (FIG. 18B). Mice underwent pretest on Day 1, four ethanol conditioning day 2 to Day 5, and CPP test on Day 6. […]

[4] = hBChE in blood by ELISA, nude mice grafted with human skin organoids

B1: hBChE: modified human butyrylcholinesterase (E30-6, SEQ ID NO: 41), cocaine hydrolase, expressed from engineered epidermal cells / skin grafts (protein)
chain: MHSKVTIICIRFLFWFLLLCMLIGKSHTEDDIIIATKNGKVRGMNLTVFGGTVTAFLGIPYAQPPLGRLRFKKPQSLTKWSDIWNATKYANSCCQNIDQSFPGFHGSEMWNPNTDLSEDCLYLNVWIPAPKPKNATVLIWIYGGGFQTGTSSLHVYDGKFLARVERVIVVSMNYRVGALGFLALPGNPEAPGNMGLFDQQLALQWVQKNIAAFGGNPKSVTLFGESSGAASVSLHLLSPGSHSLFTRAILQSGSANAPWAVTSLYEARNRTLNLAKLTGCSRENETEIIKCLRNKDPQEILLNEAFVVPYGTALGVNFGPTVDGDFLTDMPDILLELGQFKKTQILVGVNKDEGTWFLVGGAPGFSKDNNSIITRKEFQEGLKIFFPGVSEFGKESILFHYTDWVDDQRPENYREALGDVVGDYNFICPALEFTKKFSEWGNNAFFYYFEHRSSKLPWPEWMGVMHGYEIEFVFGLPLERRDNYTKAEEILSRSIVKRWANFAKYGNPNETQNNSTSWPVFKSTEQKYLTLNTESTRIMTKLRAQQCRFWTSFFPKVLEMTGNIDEAEWEWKAGFHRWNNYMMDWKNQFNDYTSKKESCVGL
modifications: Human mutant BChE
[1]
  catalytic efficiency (kcat/KM) relative to wild-type (WT) hBChE: more than 4400 times
[2]
  time without significant rejection of skin grafts: at least 5 months
Mouse epidermal cells
  expression and secretion of hBChE: robust expression and secretion of hBChE
Epidermal stem cells
  anchorage-independent growth (tumorigenicity): cannot grow in suspension
[3]
  cocaine-induced reinstatement of preference: restored in the GWT mice but not in the GhBChE mice
[4]; human grafts
  duration of stable hBChE expression in vivo: more than 8 weeks
[4]; human hBChE-expressing grafts
  level of human BChE in the blood: significantly levels of human BChE in the blood
